# Experimental data as given in publication PMC7778609.
# Key:
# [1] = molecular target: human FcγRIIIa^F158 extracellular domain with AviTag and 6×his tag (human) (UniProt P08637); experiment: SPR; Biacore T200, HBS-EP+ buffer, 20 °C; 500 nM his-tagged FcγR extracellular domains captured by anti-his antibody on a CM5 chip; twofold serially diluted antibody variants injected (120 s association, 130 s dissociation, 30 μL/min); 1:1 binding kinetics model or steady state affinity model
# [2] = molecular target: human FcγRIIIa^V158 extracellular domain with AviTag and 6×his tag (human); experiment: as above
# [3] = molecular target: human FcγRIIa^H131 extracellular domain with AviTag and 6×his tag (human) (UniProt P12318); experiment: as above
# Sequence of human FcγRIIa^H131 extracellular domain with AviTag and 6×his tag (human) (P12318 34-217): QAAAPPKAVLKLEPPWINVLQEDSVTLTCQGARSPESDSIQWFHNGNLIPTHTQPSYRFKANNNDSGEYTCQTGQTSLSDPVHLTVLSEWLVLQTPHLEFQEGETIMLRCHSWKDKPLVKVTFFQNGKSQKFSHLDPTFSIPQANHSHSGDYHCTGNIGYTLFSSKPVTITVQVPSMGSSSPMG
# [4] = molecular target: human FcγRIIa^R131 extracellular domain with AviTag and 6×his tag (human); experiment: as above
# [5] = molecular target: human FcγRIIb extracellular domain with AviTag and 6×his tag (human) (UniProt P31994); experiment: as above
# Sequence of human FcγRIIb extracellular domain with AviTag and 6×his tag (human) (P31994 43-217): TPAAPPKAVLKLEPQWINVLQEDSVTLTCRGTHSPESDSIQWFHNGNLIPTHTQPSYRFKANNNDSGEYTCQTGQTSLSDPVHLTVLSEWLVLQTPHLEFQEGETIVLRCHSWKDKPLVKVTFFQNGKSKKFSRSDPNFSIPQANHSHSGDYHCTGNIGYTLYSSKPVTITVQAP
# [6] = molecular target: human FcRn, his-tagged (human) (UniProt P55899); experiment: SPR; as a1, his-tagged FcRn captured by anti-his antibody, antibody variants injected; pH 6
# Sequence of human FcRn, his-tagged (human) (P55899 24-297): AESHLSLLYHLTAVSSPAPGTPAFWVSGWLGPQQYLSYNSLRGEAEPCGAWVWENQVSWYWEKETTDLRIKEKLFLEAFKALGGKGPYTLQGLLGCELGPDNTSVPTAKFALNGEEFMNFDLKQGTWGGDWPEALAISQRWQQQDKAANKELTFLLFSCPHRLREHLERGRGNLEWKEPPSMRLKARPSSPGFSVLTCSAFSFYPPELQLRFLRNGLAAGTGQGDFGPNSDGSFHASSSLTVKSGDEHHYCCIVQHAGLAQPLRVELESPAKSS
# [7] = molecular target: human FcγRI extracellular domain, his-tagged (human) (UniProt P12314); experiment: SPR; Biacore T200, HBS-EP+ buffer, 20 °C; 500 nM his-tagged FcγR extracellular domains captured by anti-his antibody on a CM5 chip; twofold serially diluted antibody variants injected (120 s association, 130 s dissociation, 30 μL/min); 1:1 binding kinetics model or steady state affinity model
# Sequence of human FcγRI extracellular domain, his-tagged (human) (P12314 16-292): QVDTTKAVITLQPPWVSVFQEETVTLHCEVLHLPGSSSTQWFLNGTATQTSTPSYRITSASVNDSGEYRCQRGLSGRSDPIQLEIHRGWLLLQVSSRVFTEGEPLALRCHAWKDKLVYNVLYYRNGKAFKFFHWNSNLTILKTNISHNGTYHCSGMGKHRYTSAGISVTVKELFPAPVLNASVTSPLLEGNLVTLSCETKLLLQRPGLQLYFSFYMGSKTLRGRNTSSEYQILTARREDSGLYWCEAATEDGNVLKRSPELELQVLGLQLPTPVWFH
# Sequence of human FcγRIIIa^F158 extracellular domain with AviTag and 6×his tag (human) (P08637 17-208): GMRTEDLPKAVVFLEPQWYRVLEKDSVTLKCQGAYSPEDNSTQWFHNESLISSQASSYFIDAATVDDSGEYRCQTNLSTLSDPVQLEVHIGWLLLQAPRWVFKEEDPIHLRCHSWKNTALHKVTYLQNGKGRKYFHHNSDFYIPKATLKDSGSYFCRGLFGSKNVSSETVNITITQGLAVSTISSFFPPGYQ
Substance,Kd [1] [µM],Kd [2] [µM],Kd [3] [µM],Kd [4] [µM],Kd [5] [µM],Kd [6] [µM],Kd [7] [µM]
defucosylated trastuzumab with Fc variant H268E/K326M/I332E (antibody),0.00355,0.00171,1.04,0.42,1.03,–,–
rituximab with Fc variant H268E/A330Y/I332D (antibody),0.094,0.0606,0.526,0.68,1.47,0.0219,0.00504
rituximab with Fc variant H268E/K326S/I332E (antibody),0.151,0.0747,0.814,0.803,1.13,0.025,0.00518
defucosylated trastuzumab with wild-type Fc (antibody),0.0465,0.0123,2.09,1.46,1.78,–,–
rituximab with Fc variant H268E/K326I/I332E (antibody),0.311,0.143,1.95,1.21,1.69,0.0257,0.00611
fucosylated trastuzumab with wild-type Fc (antibody),0.174,0.0385,1,1.5,1.24,–,–
rituximab with Fc variant H268E/A330T/I332E (antibody),0.156,0.0611,0.627,0.575,0.906,0.0215,0.00564
rituximab with wild-type Fc (antibody),0.944,0.403,1.09,1.25,2.41,0.021,0.00867
defucosylated trastuzumab with Fc variant H268E/K326S/I332E (antibody),0.00262,0.00136,0.669,0.369,1.46,–,–
rituximab with Fc variant H268E/K326M/I332E (antibody),–,0.0691,0.882,0.738,1.05,0.026,0.00515
